Results reported in patent publication US20170369571A1 (AbbVie / Abbott, published 2017).

What was measured:
[1] = target: human SEZ6 on patient-derived NTX tumor cells (human) (UniProt Q53EL9); assay: flow cytometry, LU117 NTX tumor cells, dot plot CD324 against MOPC isotype control, gate at 10^3
[2] = target: human SEZ6 on patient-derived NTX tumor cells (human) (UniProt Q53EL9); assay: flow cytometry, LU86 NTX tumor cells, dot plot CD324 against MOPC isotype control
[3] = target: human SEZ6 on patient-derived NTX tumor cells (human) (UniProt Q53EL9); assay: flow cytometry, LU64 NTX tumor cells, dot plot CD324 against MOPC isotype control, gate at 10^3
[4] = target: T1, cynomolgus SEZ6 extracellular domain displayed on yeast (cynomolgus, UniProt Q53EL9 23-925 (human entry)); assay: assay not given
T1 construct: also called cSEZ6; cynomolgus SEZ6 ECD
T1 chain: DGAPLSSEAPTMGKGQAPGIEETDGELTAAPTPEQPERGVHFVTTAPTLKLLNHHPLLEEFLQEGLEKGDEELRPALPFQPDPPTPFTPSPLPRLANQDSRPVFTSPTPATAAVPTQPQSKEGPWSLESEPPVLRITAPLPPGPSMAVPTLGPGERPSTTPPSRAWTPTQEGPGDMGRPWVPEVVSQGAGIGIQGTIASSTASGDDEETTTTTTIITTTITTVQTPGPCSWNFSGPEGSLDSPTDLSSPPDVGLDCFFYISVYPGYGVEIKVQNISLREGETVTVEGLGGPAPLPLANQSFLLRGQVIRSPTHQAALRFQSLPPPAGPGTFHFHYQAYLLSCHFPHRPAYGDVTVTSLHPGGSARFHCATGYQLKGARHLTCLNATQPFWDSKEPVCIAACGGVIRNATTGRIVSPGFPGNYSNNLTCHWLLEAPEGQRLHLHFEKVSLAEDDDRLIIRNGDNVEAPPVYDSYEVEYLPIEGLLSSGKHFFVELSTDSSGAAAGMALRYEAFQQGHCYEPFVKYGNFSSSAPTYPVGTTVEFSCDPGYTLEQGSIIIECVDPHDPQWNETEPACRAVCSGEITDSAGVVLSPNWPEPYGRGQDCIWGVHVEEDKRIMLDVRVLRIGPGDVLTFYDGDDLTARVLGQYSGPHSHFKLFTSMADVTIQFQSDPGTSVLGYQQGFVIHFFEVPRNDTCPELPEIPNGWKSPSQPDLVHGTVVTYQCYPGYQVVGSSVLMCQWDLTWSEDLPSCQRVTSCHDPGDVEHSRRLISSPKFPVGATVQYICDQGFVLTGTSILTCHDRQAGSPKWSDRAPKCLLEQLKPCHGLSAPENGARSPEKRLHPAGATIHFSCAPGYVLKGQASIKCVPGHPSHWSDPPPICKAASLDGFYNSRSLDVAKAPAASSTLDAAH

[5] = target: T2, recombinant rat SEZ6 ECD with 9-Histidine tag (rat, UniProt Q7TSK2 20-922 (mouse entry)); assay: assay not given
T2 construct: also called rSEZ6-ECD-His; rat recombinant SEZ6-His
T2 chain: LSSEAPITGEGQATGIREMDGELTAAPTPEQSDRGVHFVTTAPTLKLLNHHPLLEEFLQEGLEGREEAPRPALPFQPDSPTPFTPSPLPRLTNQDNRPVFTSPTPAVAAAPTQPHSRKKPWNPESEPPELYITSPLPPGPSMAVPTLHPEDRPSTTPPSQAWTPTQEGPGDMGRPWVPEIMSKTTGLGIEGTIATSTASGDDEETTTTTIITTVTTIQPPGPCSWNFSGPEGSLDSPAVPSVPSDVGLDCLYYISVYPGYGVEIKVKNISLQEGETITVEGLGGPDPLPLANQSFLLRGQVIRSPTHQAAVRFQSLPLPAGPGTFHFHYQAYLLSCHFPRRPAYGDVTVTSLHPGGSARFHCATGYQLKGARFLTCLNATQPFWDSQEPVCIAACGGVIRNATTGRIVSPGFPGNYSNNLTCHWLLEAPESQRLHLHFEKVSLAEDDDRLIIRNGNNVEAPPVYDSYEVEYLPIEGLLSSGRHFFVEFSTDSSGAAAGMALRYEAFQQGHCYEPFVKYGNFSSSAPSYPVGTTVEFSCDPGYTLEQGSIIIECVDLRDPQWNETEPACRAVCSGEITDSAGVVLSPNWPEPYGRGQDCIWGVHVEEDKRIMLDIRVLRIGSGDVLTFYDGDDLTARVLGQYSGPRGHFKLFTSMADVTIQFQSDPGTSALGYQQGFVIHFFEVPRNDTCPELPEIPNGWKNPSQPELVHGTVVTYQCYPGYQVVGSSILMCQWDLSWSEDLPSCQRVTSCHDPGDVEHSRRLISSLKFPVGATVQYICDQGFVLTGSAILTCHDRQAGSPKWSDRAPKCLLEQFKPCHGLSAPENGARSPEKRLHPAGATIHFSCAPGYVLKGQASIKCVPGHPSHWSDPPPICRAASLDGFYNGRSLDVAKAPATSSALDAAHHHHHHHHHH

[6] = target: human SEZ6 overexpressed on HEK-293T cells (human, UniProt Q53EL9 20-994); assay: cell-based or functional assay
[7] = target: human SEZ6 on patient-derived NTX tumor cells (human) (UniProt Q53EL9); assay: flow cytometry, LU64 NTX tumor cells, dot plot CD324 against SC17.42, gate at 10^3
[8] = target: human SEZ6 on patient-derived NTX tumor cells (human) (UniProt Q53EL9); assay: flow cytometry on LU100 NTX tumor cells; FMO (MFI) of the same line 289

Molecule MOPC (antibody) has a % of cells CD324+ and MOPC+ (upper right quadrant) [1] of 0.347%, a % of cells CD324- and MOPC+ (lower right quadrant) [1] of 0.05% and a % of cells CD324+ and MOPC+ (upper right quadrant) [2] of 0.483%. The % of cells CD324- and MOPC+ (lower right quadrant) [2] was 0.014% and the % of cells CD324+ and MOPC+ (upper right quadrant) [3] was 0.597%.

B1: SC17.46 (antibody, V domains shown)
VH: QVQLQQPGAELVKPGASMKLSCKASGYTFTSYWINWVKQRPGQGLEWIGNIFPDTTTTNYNEKFKSKATLTVDTSSSTAYMQLSSLTSDDSAVYYCAREYYDGTYDAMDYWGQGTSVTVS
VL: SFVMTQTPKFLLVSAGDRVTITCKASQSVNNDVAWYQQKPGQSPKLLIYYASNRYTGVPDRFTGSGYGTDFTFTISTVQAEDLAVYFCQQDYSSPRTFGGGTKLEIK
notes: murine mAb
B1: no binding [4]; no binding [5].

B2: hSC17.17-ADC1 (antibody, V domains shown)
VH: QVQLVQSGAEVKKPGASVKVSCKASGYTFTDYNMHWVRQAPGQGLEWMGEINPNIGGTGYNQKFKGRVTMTRDTSISTAYMELSRLRSDDTAVYYCARTYSYYSYEFAYWGQGTLVTVSS
VL: EIVLTQSPATLSLSPGERATLSCSASSSVSYMHWYQQKPGQAPRLLIYDTSKLPSGIPARFSGSGSGTDFTLTISSLEPEDFAVYYCQQWSSTPPTFGQGTKLEIK
modifications: PBD dimer (ADC1) through a maleimido linker on reduced Cys residues
For B2, the “in vitro cytotoxicity, IC50” value [6] was 11 nM.

B3: SC17.42 (antibody, from a related filing, V domains shown)
VH: DVKLVESGGGLVRPGGSLKLSCAASGFTFSRYTMSWVRQTPEKRLEWAATINSGGSNTYYPDSVKGRFTISRDNAKNTLFLQMSSLKSEDTAMYYCTNGNHWGQGTTLTVSS
VL: ENVLTQSPAIMSASPGEKVTMTCSASSSVNYMYWYQQKSSTSPKLWIYDTSKLTSGVPGRFSGSGSGNSYSLTISNMEAEDVATYYCFQGSGYPLTFGSGTKLEIK
Molecule B3 has a % of cells CD324+ and SC17.42+ (upper right quadrant) [7] of 27.7%, a % of cells CD324- and SC17.42+ (lower right quadrant) [7] of 0.637% and a Tumor (MFI) [8] of 1400.
